Measurements published in paper PMC9371702 (Proceedings of the National Academy of Sciences of the …, 2022).

Molecular target: human CTLA-4 (as crystallised with 4003-1 (VH)) (human, UniProt P16410)
Assay: crystal structure

Sequence of human CTLA-4 (as crystallised with 4003-1 (VH)) (P16410 36-154): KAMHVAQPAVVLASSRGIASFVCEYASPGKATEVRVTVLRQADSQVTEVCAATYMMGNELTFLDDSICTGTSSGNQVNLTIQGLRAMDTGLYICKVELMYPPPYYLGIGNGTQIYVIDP

binding result: binds
B1: 4003-1 (VH) (VHH)
VHH: EVQLVESGGGLIQPGGSLRLSCAVSGFTVSKNYMSWVRQAPGKGLEWVSVVYSGGSKTYADSVKGRFTISRDNSKNTLYLQMNSLRAEDTAVYYCARAVPHSPSSFDIWGQGTMVTVSS
